The source of these data is publication PMC10786891, “Massively parallel profiling of RNA-targeting CRISPR-Cas13d”.

T1: EsCas13d, nuclease-dead (Eubacterium siraeum, UniProt B0MS50, R295A;H300A;R849A;H854A)
T1 sequence: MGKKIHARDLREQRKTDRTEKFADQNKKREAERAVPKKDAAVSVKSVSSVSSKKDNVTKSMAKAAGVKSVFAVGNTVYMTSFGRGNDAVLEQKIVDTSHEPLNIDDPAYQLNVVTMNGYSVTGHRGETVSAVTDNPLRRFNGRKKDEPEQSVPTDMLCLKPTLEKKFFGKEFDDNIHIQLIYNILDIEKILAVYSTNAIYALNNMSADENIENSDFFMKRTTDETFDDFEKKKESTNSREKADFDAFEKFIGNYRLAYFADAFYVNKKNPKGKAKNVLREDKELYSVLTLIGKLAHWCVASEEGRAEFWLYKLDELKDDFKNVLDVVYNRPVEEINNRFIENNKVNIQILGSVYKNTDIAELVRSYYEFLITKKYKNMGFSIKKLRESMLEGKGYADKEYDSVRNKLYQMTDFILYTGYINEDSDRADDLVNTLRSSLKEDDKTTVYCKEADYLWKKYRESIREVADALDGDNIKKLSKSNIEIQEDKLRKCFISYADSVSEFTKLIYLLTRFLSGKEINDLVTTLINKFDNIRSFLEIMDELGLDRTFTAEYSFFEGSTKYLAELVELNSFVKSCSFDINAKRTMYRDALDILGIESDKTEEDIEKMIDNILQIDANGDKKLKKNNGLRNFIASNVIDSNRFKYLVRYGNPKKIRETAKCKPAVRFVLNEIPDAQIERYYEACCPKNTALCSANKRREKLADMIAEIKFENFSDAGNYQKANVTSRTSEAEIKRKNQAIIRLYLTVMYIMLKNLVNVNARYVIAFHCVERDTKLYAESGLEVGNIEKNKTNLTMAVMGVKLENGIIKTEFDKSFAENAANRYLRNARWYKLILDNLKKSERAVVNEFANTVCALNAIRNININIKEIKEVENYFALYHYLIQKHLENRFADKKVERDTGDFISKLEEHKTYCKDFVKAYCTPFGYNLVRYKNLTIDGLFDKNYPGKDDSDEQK

B1: target 1 MT 5'PFS UGC 3'PFS ACG (mixed)
RNA 1: CACCCGUGCAAAAAUGCAGGGGUCUAAAACUGAGCGGAUAACCUCUCUAUGG
RNA 2: GGGAAUGGAUCCACAUCUACGAAUUCUGCCCAUAGAGAGGUUAUCCGCUCAACGAGAUCGGAAGAGCACACGU
B2: target 1 MT 5'PFS UCC 3'PFS UCA (mixed)
RNA 1: CACCCGUGCAAAAAUGCAGGGGUCUAAAACUGAGCGGAUAACCUCUCUAUGG
RNA 2: GGGAAUGGAUCCACAUCUACGAAUUCUCCCCAUAGAGAGGUUAUCCGCUCAUCAAGAUCGGAAGAGCACACGU
B3: target 1 MT 5'PFS UGG 3'PFS UUA (mixed)
RNA 1: CACCCGUGCAAAAAUGCAGGGGUCUAAAACUGAGCGGAUAACCUCUCUAUGG
RNA 2: GGGAAUGGAUCCACAUCUACGAAUUCUGGCCAUAGAGAGGUUAUCCGCUCAUUAAGAUCGGAAGAGCACACGU
B4: target 1 MT 5'PFS ACG 3'PFS CGG (mixed)
RNA 1: CACCCGUGCAAAAAUGCAGGGGUCUAAAACUGAGCGGAUAACCUCUCUAUGG
RNA 2: GGGAAUGGAUCCACAUCUACGAAUUCACGCCAUAGAGAGGUUAUCCGCUCACGGAGAUCGGAAGAGCACACGU
B5: target 1 MT 5'PFS GCG 3'PFS UUA (mixed)
RNA 1: CACCCGUGCAAAAAUGCAGGGGUCUAAAACUGAGCGGAUAACCUCUCUAUGG
RNA 2: GGGAAUGGAUCCACAUCUACGAAUUCGCGCCAUAGAGAGGUUAUCCGCUCAUUAAGAUCGGAAGAGCACACGU
B6: target 1 MT 5'PFS ACU 3'PFS CAU (mixed)
RNA 1: CACCCGUGCAAAAAUGCAGGGGUCUAAAACUGAGCGGAUAACCUCUCUAUGG
RNA 2: GGGAAUGGAUCCACAUCUACGAAUUCACUCCAUAGAGAGGUUAUCCGCUCACAUAGAUCGGAAGAGCACACGU
B7: target 1 MT 5'PFS UAG 3'PFS CUG (mixed)
RNA 1: CACCCGUGCAAAAAUGCAGGGGUCUAAAACUGAGCGGAUAACCUCUCUAUGG
RNA 2: GGGAAUGGAUCCACAUCUACGAAUUCUAGCCAUAGAGAGGUUAUCCGCUCACUGAGAUCGGAAGAGCACACGU
B8: target 1 MT 5'PFS UGC 3'PFS ACA (mixed)
RNA 1: CACCCGUGCAAAAAUGCAGGGGUCUAAAACUGAGCGGAUAACCUCUCUAUGG
RNA 2: GGGAAUGGAUCCACAUCUACGAAUUCUGCCCAUAGAGAGGUUAUCCGCUCAACAAGAUCGGAAGAGCACACGU
B9: target 1 MT 5'PFS ACG 3'PFS CGU (mixed)
RNA 1: CACCCGUGCAAAAAUGCAGGGGUCUAAAACUGAGCGGAUAACCUCUCUAUGG
RNA 2: GGGAAUGGAUCCACAUCUACGAAUUCACGCCAUAGAGAGGUUAUCCGCUCACGUAGAUCGGAAGAGCACACGU
B10: target 1 MT 5'PFS AAC 3'PFS AUG (mixed)
RNA 1: CACCCGUGCAAAAAUGCAGGGGUCUAAAACUGAGCGGAUAACCUCUCUAUGG
RNA 2: GGGAAUGGAUCCACAUCUACGAAUUCAACCCAUAGAGAGGUUAUCCGCUCAAUGAGAUCGGAAGAGCACACGU
B11: target 1 MT 5'PFS UCC 3'PFS UCG (mixed)
RNA 1: CACCCGUGCAAAAAUGCAGGGGUCUAAAACUGAGCGGAUAACCUCUCUAUGG
RNA 2: GGGAAUGGAUCCACAUCUACGAAUUCUCCCCAUAGAGAGGUUAUCCGCUCAUCGAGAUCGGAAGAGCACACGU
B12: target 1 MT 5'PFS AGA 3'PFS AAC (mixed)
RNA 1: CACCCGUGCAAAAAUGCAGGGGUCUAAAACUGAGCGGAUAACCUCUCUAUGG
RNA 2: GGGAAUGGAUCCACAUCUACGAAUUCAGACCAUAGAGAGGUUAUCCGCUCAAACAGAUCGGAAGAGCACACGU
B13: target 1 MT 5'PFS UCG 3'PFS UCA (mixed)
RNA 1: CACCCGUGCAAAAAUGCAGGGGUCUAAAACUGAGCGGAUAACCUCUCUAUGG
RNA 2: GGGAAUGGAUCCACAUCUACGAAUUCUCGCCAUAGAGAGGUUAUCCGCUCAUCAAGAUCGGAAGAGCACACGU
B14: target 1 MT 5'PFS AAC 3'PFS AUC (mixed)
RNA 1: CACCCGUGCAAAAAUGCAGGGGUCUAAAACUGAGCGGAUAACCUCUCUAUGG
RNA 2: GGGAAUGGAUCCACAUCUACGAAUUCAACCCAUAGAGAGGUUAUCCGCUCAAUCAGAUCGGAAGAGCACACGU
B15: target 1 MT 5'PFS AGA 3'PFS AAG (mixed)
RNA 1: CACCCGUGCAAAAAUGCAGGGGUCUAAAACUGAGCGGAUAACCUCUCUAUGG
RNA 2: GGGAAUGGAUCCACAUCUACGAAUUCAGACCAUAGAGAGGUUAUCCGCUCAAAGAGAUCGGAAGAGCACACGU
B16: target 1 MT 5'PFS AAC 3'PFS UUC (mixed)
RNA 1: CACCCGUGCAAAAAUGCAGGGGUCUAAAACUGAGCGGAUAACCUCUCUAUGG
RNA 2: GGGAAUGGAUCCACAUCUACGAAUUCAACCCAUAGAGAGGUUAUCCGCUCAUUCAGAUCGGAAGAGCACACGU
B17: target 1 MT 5'PFS GCG 3'PFS UUC (mixed)
RNA 1: CACCCGUGCAAAAAUGCAGGGGUCUAAAACUGAGCGGAUAACCUCUCUAUGG
RNA 2: GGGAAUGGAUCCACAUCUACGAAUUCGCGCCAUAGAGAGGUUAUCCGCUCAUUCAGAUCGGAAGAGCACACGU
B18: target 1 MT 5'PFS UCG 3'PFS UCC (mixed)
RNA 1: CACCCGUGCAAAAAUGCAGGGGUCUAAAACUGAGCGGAUAACCUCUCUAUGG
RNA 2: GGGAAUGGAUCCACAUCUACGAAUUCUCGCCAUAGAGAGGUUAUCCGCUCAUCCAGAUCGGAAGAGCACACGU
B19: target 1 MT 5'PFS UAG 3'PFS CUC (mixed)
RNA 1: CACCCGUGCAAAAAUGCAGGGGUCUAAAACUGAGCGGAUAACCUCUCUAUGG
RNA 2: GGGAAUGGAUCCACAUCUACGAAUUCUAGCCAUAGAGAGGUUAUCCGCUCACUCAGAUCGGAAGAGCACACGU
B20: target 1 MT 5'PFS UAG 3'PFS CUA (mixed)
RNA 1: CACCCGUGCAAAAAUGCAGGGGUCUAAAACUGAGCGGAUAACCUCUCUAUGG
RNA 2: GGGAAUGGAUCCACAUCUACGAAUUCUAGCCAUAGAGAGGUUAUCCGCUCACUAAGAUCGGAAGAGCACACGU
B21: target 1 MT 5'PFS UGG 3'PFS UUG (mixed)
RNA 1: CACCCGUGCAAAAAUGCAGGGGUCUAAAACUGAGCGGAUAACCUCUCUAUGG
RNA 2: GGGAAUGGAUCCACAUCUACGAAUUCUGGCCAUAGAGAGGUUAUCCGCUCAUUGAGAUCGGAAGAGCACACGU
B22: target 1 insA 3' of 13,insA 3' of 4 (mixed)
RNA 1: CACCCGUGCAAAAAUGCAGGGGUCUAAAACUGAGCGGAUAACCUCUCUAUGG
RNA 2: GGGAAUGGAUCCACAUCUACGAAUUCGUACCAUAGAGAGAGUUAUCCGCAUCACCGAGAUCGGAAGAGCACACGU
B23: target 1 MT 5'PFS GCG 3'PFS UUU (mixed)
RNA 1: CACCCGUGCAAAAAUGCAGGGGUCUAAAACUGAGCGGAUAACCUCUCUAUGG
RNA 2: GGGAAUGGAUCCACAUCUACGAAUUCGCGCCAUAGAGAGGUUAUCCGCUCAUUUAGAUCGGAAGAGCACACGU
B24: target 1 MT 5'PFS GCG 3'PFS UUG (mixed)
RNA 1: CACCCGUGCAAAAAUGCAGGGGUCUAAAACUGAGCGGAUAACCUCUCUAUGG
RNA 2: GGGAAUGGAUCCACAUCUACGAAUUCGCGCCAUAGAGAGGUUAUCCGCUCAUUGAGAUCGGAAGAGCACACGU
B25: target 1 MT 5'PFS UGG 3'PFS UUU (mixed)
RNA 1: CACCCGUGCAAAAAUGCAGGGGUCUAAAACUGAGCGGAUAACCUCUCUAUGG
RNA 2: GGGAAUGGAUCCACAUCUACGAAUUCUGGCCAUAGAGAGGUUAUCCGCUCAUUUAGAUCGGAAGAGCACACGU
B26: target 1 insU 3' of 18,insU 3' of 12 (mixed)
RNA 1: CACCCGUGCAAAAAUGCAGGGGUCUAAAACUGAGCGGAUAACCUCUCUAUGG
RNA 2: GGGAAUGGAUCCACAUCUACGAAUUCGUACCAUAUGAGAGGUUUAUCCGCUCACCGAGAUCGGAAGAGCACACGU
B27: target 1 MT 5'PFS AAC 3'PFS AUA (mixed)
RNA 1: CACCCGUGCAAAAAUGCAGGGGUCUAAAACUGAGCGGAUAACCUCUCUAUGG
RNA 2: GGGAAUGGAUCCACAUCUACGAAUUCAACCCAUAGAGAGGUUAUCCGCUCAAUAAGAUCGGAAGAGCACACGU

The target of this data set is T1, EsCas13d, nuclease-dead. Put plainly: crRNA (strand 1, pre-loaded); Mg2+; 40 mM Tris-HCl pH 7.5, 150 mM NaCl, 6 mM MgCl2, 1 mM DTT, 0.1% Tween-20, 0.2 mg/ml BSA; 25 C; 10 min per concentration, then washed. To be noted: tags: His6-TwinStrep-SUMO cleaved; N-terminal SNAP kept (SNAP-Surface 488); label: 3' end held by stalled T7 RNA polymerase.
Broadly, the Kd is the free concentration of one partner at which half of the binding sites on the other are occupied at equilibrium, for simple one-to-one binding. A low value points to tighter binding. For B1, the affinity, expressed as Kd, was 16.2 ± 4.65 nM.

In turn, B2 yielded a dissociation constant Kd of around 20 nM. As for B3, the figure is 48.5 ± 10.5 nM. With B4 the figure was 57 ± 18 nM; with B5, 9.05 ± 1.55 nM; with B6, around 80 nM. As for B7, the figure is 22 ± 5 nM; as for B8, 23.5 ± 8.5 nM. As to B9, the Kd is around 34 nM. For the molecule B10, the Kd is around 60 nM. As for B11, the figure is 20.6 ± 7.75 nM; as for B12, around 90 nM. On to B13, for which binding was put at a Kd of 38.5 ± 13.5 nM. With B14 the figure was around 25 nM. With B15 the figure was around 65.5 nM. As for B16, the figure is 14.1 ± 3.9 nM; as for B17, 10.8 ± 2.8 nM. In turn, B18 came in with a dissociation constant (Kd) of 24.5 ± 6.5 nM. Compared with the last molecule, the Kd is about 2.3-fold higher. With B19 the figure was 29.5 ± 12 nM; with B20, 22.5 ± 4.5 nM; with B21, 85 ± 23 nM. With B22, binding was put at a Kd of 3.4 ± 0.5 nM. As for B23, the figure is 7.85 ± 1 nM; as for B24, 5.38 ± 0.505 nM; as for B25, 59 ± 20.5 nM. As for B26, the figure is 26.1 ± 1.7 nM. B27: the affinity, expressed as Kd, was 22 ± 8.5 nM.
